Data taken from patent US20220259318A1 (Hoffmann-La Roche, published 2022).
Numbering of substitutions follows the chain as printed.

B1: 5E11-TCB (bispecific antibody, human IgG1, kappa, L234A L235A)
light 1: DIVLTQSPALAVSPGQRATISCRASQSVSISGINLMNWYQQKPGQQPKLLIYHASILASGIPTRFSGSGSGTDFTLTIDPVQADDIATYYCQQTRESPLTFGSGTNLEIKRTVAAPSVFIFPPSDRKLKSGTASVVCLLNNFYPREAKVQWKVDNALQSGNSQESVTEQDSKDSTYSLSSTLTLSKADYEKHKVYACEVTHQGLSSPVTKSFNRGEC
light 2: EVQLLESGGGLVQPGGSLRLSCAASGFTFSTYAMNWVRQAPGKGLEWVSRIRSKYNNYATYYADSVKGRFTISRDDSKNTLYLQMNSLRAEDTAVYYCVRHGNFGNSYVSWFAYWGQGTLVTVSSASVAAPSVFIFPPSDEQLKSGTASVVCLLNNFYPREAKVQWKVDNALQSGNSQESVTEQDSKDSTYSLSSTLTLSKADYEKHKVYACEVTHQGLSSPVTKSFNRGEC
heavy 1: ELQLEQSGGGLVQPGGSLTLSCAASGFTFSKYAMAWVRQAPTKGLEWVASISTGGVNTYYRDSVKARFTISRDNAKNTQYLQMDSLRSEDTATYYCATHTGDYFDYWGQGVMVTVSSASTKGPSVFPLAPSSKSTSGGTAALGCLVEDYFPEPVTVSWNSGALTSGVHTFPAVLQSSGLYSLSSVVTVPSSSLGTQTYICNVNHKPSNTKVDEKVEPKSCDKTHTCPPCPAPEAAGGPSVFLFPPKPKDTLMISRTPEVTCVVVDVSHEDPEVKFNWYVDGVEVHNAKTKPREEQYNSTYRVVSVLTVLHQDWLNGKEYKCKVSNKALGAPIEKTISKAKGQPREPQVCTLPPSRDELTKNQVSLSCAVKGFYPSDIAVEWESNGQPENNYKTTPPVLDSDGSFFLVSKLTVDKSRWQQGNVFSCSVMHEALHNHYTQKSLSLSPGK
heavy 2: not shown
notes: 2+1 anti-GPRC5D/anti-CD3 T cell bispecific: LC1 (GPRC5D), LC2 (CD3 crossed VH-CL), HC hole, HC knob; also called 5E11p-CH2527
B2: B72-TCB (bispecific antibody, human IgG1, kappa, L234A L235A)
heavy 1: not shown
light 1: B1 light 2 with L5V, S30N, S49A, D64A, T80S, R89K, A90T, V99A
heavy 2: QVQLVQSGAEVKKPGASVKVSCKASGYSFTGYTMNWVRQAPGQGLEWMGLINPYNSDTNYAQKLQGRVTMTTDTSTSTAYMELRSLRSDDTAVYYCARVALRVALDYWGQGTLVTVSSASTKGPSVFPLAPSSKSTSGGTAALGCLVEDYFPEPVTVSWNSGALTSGVHTFPAVLQSSGLYSLSSVVTVPSSSLGTQTYICNVNHKPSNTKVDEKVEPKSCDKTHTCPPCPAPEAAGGPSVFLFPPKPKDTLMISRTPEVTCVVVDVSHEDPEVKFNWYVDGVEVHNAKTKPREEQYNSTYRVVSVLTVLHQDWLNGKEYKCKVSNKALGAPIEKTISKAKGQPREPQVCTLPPSRDELTKNQVSLSCAVKGFYPSDIAVEWESNGQPENNYKTTPPVLDSDGSFFLVSKLTVDKSRWQQGNVFSCSVMHEALHNHYTQKSLSLSPGK
light 2: DIQMTQSPSSLSASVGDRVTITCKASQNVATHVGWYQQKPGKAPKRLIYSASYRYSGVPSRFSGSGSGTEFTLTISNLQPEDFATYYCQQYNRYPYTFGQGTKLEIKRTVAAPSVFIFPPSDRKLKSGTASVVCLLNNFYPREAKVQWKVDNALQSGNSQESVTEQDSKDSTYSLSSTLTLSKADYEKHKVYACEVTHQGLSSPVTKSFNRGEC
B3: 5F11-TCB (bispecific antibody, human IgG1, kappa, L234A L235A)
light 1: DIVMTQAPLSVSVTPGESASISCRSSKSLLHSNGITYVYWYFQKPGKSPQVLIYRMSNLASGVPDRFSGSGSETDFTLKISRVEAEDVGIYHCGQLLENPYTFGAGTELELKRTVAAPSVFIFPPSDRKLKSGTASVVCLLNNFYPREAKVQWKVDNALQSGNSQESVTEQDSKDSTYSLSSTLTLSKADYEKHKVYACEVTHQGLSSPVTKSFNRGEC
light 2: B1 light 2
heavy 1: EVQLVESGGGLVQPGRSLKLSCAASGFSFSNYGMAWVRQAATKGLEWVASISTGGGNTYYRDSVKGRFIVSRDNAKNTQYLQMDSLRSEDTATYYCTRHDRGGLYWGQGVMVTVSSASTKGPSVFPLAPSSKSTSGGTAALGCLVEDYFPEPVTVSWNSGALTSGVHTFPAVLQSSGLYSLSSVVTVPSSSLGTQTYICNVNHKPSNTKVDEKVEPKSCDKTHTCPPCPAPEAAGGPSVFLFPPKPKDTLMISRTPEVTCVVVDVSHEDPEVKFNWYVDGVEVHNAKTKPREEQYNSTYRVVSVLTVLHQDWLNGKEYKCKVSNKALGAPIEKTISKAKGQPREPQVCTLPPSRDELTKNQVSLSCAVKGFYPSDIAVEWESNGQPENNYKTTPPVLDSDGSFFLVSKLTVDKSRWQQGNVFSCSVMHEALHNHYTQKSLSLSPGK
heavy 2: not shown
notes: 2+1 anti-GPRC5D/anti-CD3 T cell bispecific: LC1 (GPRC5D), LC2 (CD3 crossed VH-CL), HC hole, HC knob; also called 5F11p-CH2527
B4: 5F11(VH1b + VL2a)-C122-TCB (P1AE6623) (bispecific antibody, human IgG1, kappa, L234A L235A)
light 1: DIVMTQSPLSLPVTPGEPASISCRSSKSLLHSNGITYVYWYLQKPGQSPQLLIYRMSNRASGVPDRFSGSGSGTDFTLKISRVEAEDVGVYHCGQLLENPYTFGQGTKLEIKRTVAAPSVFIFPPSDRKLKSGTASVVCLLNNFYPREAKVQWKVDNALQSGNSQESVTEQDSKDSTYSLSSTLTLSKADYEKHKVYACEVTHQGLSSPVTKSFNRGEC
light 2: B1 light 2 with T28Q, T31S, G102T, N103T, G105P, N106S, W111Y, F112Y, A113G
heavy 1: EVQLVESGGGVVQPGRSLRLSCAASGFSFSNYGMAWVRQAPGKGLEWVASISTGGGNTYYRDSVKGRFTISRDNAKNTLYLQMNSLRAEDTAVYYCTRHDRGGLYWGQGTMVTVSSASTKGPSVFPLAPSSKSTSGGTAALGCLVEDYFPEPVTVSWNSGALTSGVHTFPAVLQSSGLYSLSSVVTVPSSSLGTQTYICNVNHKPSNTKVDEKVEPKSCDKTHTCPPCPAPEAAGGPSVFLFPPKPKDTLMISRTPEVTCVVVDVSHEDPEVKFNWYVDGVEVHNAKTKPREEQYNSTYRVVSVLTVLHQDWLNGKEYKCKVSNKALGAPIEKTISKAKGQPREPQVCTLPPSRDELTKNQVSLSCAVKGFYPSDIAVEWESNGQPENNYKTTPPVLDSDGSFFLVSKLTVDKSRWQQGNVFSCSVMHEALHNHYTQKSLSLSPGK
heavy 2: not shown
notes: 2+1 TCB: LC1 (anti-GPRC5D), LC2 (anti-CD3 crossed), HC1 Fc hole, HC2 Fc knob
B5: 5E11(VH1d + VL2a)-C122-TCB (P1AE6626) (bispecific antibody, human IgG1, kappa, L234A L235A)
light 1: EIVLTQSPGTLSLSPGERATLSCRASQSVSISGINLMNWYQQKPGQQPRLLIYHASILASGIPDRFSGSGSGTDFTLTISRLEPEDFAVYYCQQTRESPLTFGQGTRLEIKRTVAAPSVFIFPPSDRKLKSGTASVVCLLNNFYPREAKVQWKVDNALQSGNSQESVTEQDSKDSTYSLSSTLTLSKADYEKHKVYACEVTHQGLSSPVTKSFNRGEC
light 2: B1 light 2 with T28Q, T31S, G102T, N103T, G105P, N106S, W111Y, F112Y, A113G
heavy 1: ELQLLESGGGLVQPGGSLRLSCAASGFTFSKYAMAWVRQAPGKGLEWVASISTGGVNTYYADSVKGRFTISRDNAKNTLYLQMNSLRAEDTAVYYCATHTGDYFDYWGQGTMVTVSSASTKGPSVFPLAPSSKSTSGGTAALGCLVEDYFPEPVTVSWNSGALTSGVHTFPAVLQSSGLYSLSSVVTVPSSSLGTQTYICNVNHKPSNTKVDEKVEPKSCDKTHTCPPCPAPEAAGGPSVFLFPPKPKDTLMISRTPEVTCVVVDVSHEDPEVKFNWYVDGVEVHNAKTKPREEQYNSTYRVVSVLTVLHQDWLNGKEYKCKVSNKALGAPIEKTISKAKGQPREPQVCTLPPSRDELTKNQVSLSCAVKGFYPSDIAVEWESNGQPENNYKTTPPVLDSDGSFFLVSKLTVDKSRWQQGNVFSCSVMHEALHNHYTQKSLSLSPGK
heavy 2: not shown
notes: as for B4

How the values were obtained:
human GPRC5D [1] = target: T1, human GPRC5D (human, UniProt Q9NZD1 1-345); assay: cell-based or functional assay
human GPRC5D [2] = target: T1, human GPRC5D; assay: cell-based or functional assay; remark: listed apart in the source
human GPRC5D [3] = target: T1, human GPRC5D; assay: cell-based or functional assay; remark: listed apart in the source
human GPRC5D [4] = target: T1, human GPRC5D; assay: flow cytometry on NCI-H929 cells; paragraph 550 says these values were falsely calculated by a factor of 10 (too low)
Protocol: (§1) To measure the binding to GPRC5D, we performed a flow cytometry-based binding assay on reported multiple myeloma cell lines (Lombardi et al., Molecular characterization of human multiple myeloma cell lines by integrative genomics: insights into the biology of the disease; Genes Chromosomes Cancer. 2007 March; 46(3):226-38). The cell line NCI-H929 (ATCC® CRL-9068) was cultured in RPMI 1640 with Glutamax medium (Gibco) supplemented with 10% FBS, 1× Penicillin/Streptomycin (Gibco), 1× Sodium Pyruvate (Gibco) and 50 μM beta-Mercaptoethanol (Gibco). Jurkat-NFAT reporter cells (a CD3-expressing human acute lymphatic leukemia reporter cell line with a NFAT promoter, GloResponse Jurkat NFAT-RE-luc2P, Promega #CS176501) were cultured in RPMI 1640, containing 2 g/l Glucose, 2 g/l NaHCO₃, 10% FCS, 25 mM HEPES, 2 mM L-Glutamine, 1×NEAA, 1× Sodium-pyruvate and 200 μg/ml Hygromycin B.
(§2) Flow cytometry acquisition was performed on a custom-designed BD Biosciences Fortessa and analyzed using BD Diva. EC50 values were calculated, using GraphPad Prism software.

human CD3 = target: T2, human CD3 (human, UniProt P07766 23-207); assay: flow cytometry on Jurkat-NFAT cells; paragraph 550 says these values were falsely calculated by a factor of 10 (too low)
T2 construct: Expressed on Jurkat-NFAT reporter cells as part of the TCR/CD3 complex; also called hCD3; CD3 epsilon
Protocol: as §1, §2

human GPRC5D [5] = target: T1, human GPRC5D; assay: cell-based or functional assay; remark: listed apart in the source
human GPRC5D [6] = target: T1, human GPRC5D; assay: cell-based or functional assay; remark: listed apart in the source

T2 sequence (P07766 23-207 limits assumed): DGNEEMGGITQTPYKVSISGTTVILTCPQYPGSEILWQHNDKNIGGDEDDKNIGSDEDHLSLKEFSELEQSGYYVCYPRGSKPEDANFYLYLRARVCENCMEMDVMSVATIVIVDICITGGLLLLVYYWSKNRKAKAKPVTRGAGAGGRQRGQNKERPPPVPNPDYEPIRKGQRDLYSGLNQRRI
T1 sequence (Q9NZD1 whole entry): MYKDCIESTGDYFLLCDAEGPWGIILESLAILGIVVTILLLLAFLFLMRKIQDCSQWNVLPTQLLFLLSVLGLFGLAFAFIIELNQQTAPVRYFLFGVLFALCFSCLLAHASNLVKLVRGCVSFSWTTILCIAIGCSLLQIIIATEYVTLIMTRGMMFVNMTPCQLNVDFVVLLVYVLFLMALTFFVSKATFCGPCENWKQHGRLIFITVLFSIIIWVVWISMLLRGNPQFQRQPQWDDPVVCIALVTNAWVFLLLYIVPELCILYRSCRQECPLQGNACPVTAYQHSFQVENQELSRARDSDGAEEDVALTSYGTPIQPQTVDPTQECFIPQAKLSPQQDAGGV

| Binder | EC50 of anti-GPRC5D-TCB mediated killing, AMO-1 (human GPRC5D [1]) [nM] | EC50 of anti-GPRC5D-TCB mediated killing, L363 (human GPRC5D [1]) [nM] | EC50 of anti-GPRC5D-TCB mediated killing, NCI-H929 (human GPRC5D [1]) [nM] | EC50 of anti-GPRC5D-TCB mediated killing, RPMI-8226 (human GPRC5D [1]) [nM] | EC50 in vitro killing assay, AMO-1 (human GPRC5D [2]) [nM] | EC50 in vitro killing assay, EJM (human GPRC5D [2]) [nM] | EC50 in vitro killing assay, L363 (human GPRC5D [2]) [nM] | EC50 in vitro killing assay, MOLP-2 (human GPRC5D [2]) [nM] | EC50 in vitro killing assay, NCI-H929 (human GPRC5D [2]) [nM] | EC50 in vitro killing assay, OPM-2 (human GPRC5D [2]) [nM] | EC50 in vitro killing assay, RPMI (human GPRC5D [2]) [nM] | AUC, activation of Jurkat-NFAT reporter cells in presence of RPMI-8226 cells (human GPRC5D [3]) | EC50 (pM), activation of Jurkat-NFAT reporter cells in presence of RPMI-8226 cells (human GPRC5D [3]) [pM] | EC50 (human GPRC5D [4]) [nM] | EC50 (human CD3) [nM] | further results |
| --- | --- | --- | --- | --- | --- | --- | --- | --- | --- | --- | --- | --- | --- | --- | --- | --- |
| B1 | 0.014 | 0.012 | 0.007 | 0.024 | 0.008 | 0.011 | 0.017 | 0.018 | 0.007 | 0.002 | 0.064 | 265000 | 157 | 3.36 | 3.67 |  |
| B2 |  |  |  |  | 0.109 | 0.06 | 0.058 | 0.124 | 0.058 | 0.171 | 0.193 |  |  |  |  | EC50 (pM), TCB-mediated tumor cell lysis, AMO-1 (human GPRC5D [5]): 79.9 pM; EC50 (pM), TCB-mediated tumor cell lysis, IM-9 (human GPRC5D [5]): 198 pM; EC50 (pM), TCB-mediated tumor cell lysis, LP-1 (human GPRC5D [5]): 49 pM; EC50 (pM), TCB-mediated tumor cell lysis, NCI-H929 (human GPRC5D [5]): 26.9 pM; AUC, TCB-mediated tumor cell lysis, AMO-1 (human GPRC5D [6]): 5.45e+07; AUC, TCB-mediated tumor cell lysis, IM-9 (human GPRC5D [6]): 8.6e+06; AUC, TCB-mediated tumor cell lysis, LP-1 (human GPRC5D [6]): 1.15e+07; AUC, TCB-mediated tumor cell lysis, NCI-H929 (human GPRC5D [6]): 1.09e+07 |
| B3 | 0.003 | 0.001 | 0.001 | 0.002 | 0.006 | 0.003 | 0.003 | 0.001 | 0.004 | 0.001 | 0.006 | 393000 | 14 | 0.18 | 2.31 |  |
| B4 |  |  |  |  |  |  |  |  |  |  |  | 778000 | 8.9 | 0.36 |  |  |
| B5 |  |  |  |  |  |  |  |  |  |  |  | 582000 | 49.7 | 0.85 | 7.8 |  |
